The results in this text go back to patent publication US6451992.

This data set deals with thrombostasin (thrombin inhibitor of Haematobia irritans saliva; tested as whole serotonin-induced saliva).

As for bovine thrombin, the “rates of hydrolysis of chromogenic substrate S238 (2.5-100 µM) by bovine thrombin (250 pM) alone and in the presence of horn fly saliva (equivalent to 2 flies)” value was “it may be a competitive inhibitor, as its effect is diminished when substrate is unlimited (100 µM)”.
